Ends that are not written are not given here.
Columns and labels:
[1] = molecular target: T1, GST-β3cyto (GST fusion protein of the β3 integrin cytoplasmic domain) (UniProt P05106 742-788); experiment: phage binding, colonies from β3-GST wells / BSA wells
T1 construct: domain: cytoplasmic domain; Recombinant GST fusion coated on microtiter wells; also called β3-GST; β3 cytoplasmic domain fusion protein; not shown: glutathione S-transferase (GST) fusion partner
Excerpt: (§1) β3 and β5 cytoplasmic domain-binding peptides were isolated by screening multiple phage libraries with recombinant GST fusion proteins that contained either GST-β3cyto or GST-β5cyto coated onto microtiter wells. Immobilized GST was used as a negative control for enrichment during the panning of each cytoplasmic domain. Phage were sequenced from randomly selected clones after three rounds of panning as disclosed elsewhere (Koivunen et al., 1995; Pasqualini et al., 1995). […] Randomly selected clones from panning rounds II and III were sequenced. Amino acid sequences of the phagemid encoded peptides were deduced from nucleotide sequences. The ratios were calculated by dividing the number of colonies recovered from β3-GST-coated wells and those recovered from GST or BSA.

[2] = molecular target: T1, GST-β3cyto (GST fusion protein of the …); experiment: phage binding, colonies from β3-GST wells / GST wells
Excerpt: as §1

[3] = molecular target: T2, Aminopeptidase A (APA, EC 3.4.11.7) on SK-RC-49/APA cells (UniProt Q07075 1-957, limits assumed); experiment: phage binding to SK-RC-49/APA cells against SK-RC-49 parental cells
T2 construct: whole, on cells

[4] = molecular target: T3, GST-β5cyto (GST fusion protein of the β5 integrin cytoplasmic domain) (UniProt P18084 743-799); experiment: phage binding, colonies from β5-GST wells / GST wells
T3 construct: domain: cytoplasmic domain; Recombinant GST fusion coated on microtiter wells; also called β5-GST; β5 cytoplasmic domain fusion protein; not shown: glutathione S-transferase (GST) fusion partner
T3 sequence (looked up): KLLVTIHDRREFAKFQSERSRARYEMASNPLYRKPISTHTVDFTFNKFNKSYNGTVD
Excerpt: as §1

[5] = molecular target: T3, GST-β5cyto (GST fusion protein of the …); experiment: phage binding, colonies from β5-GST wells / BSA wells
Excerpt: as §1

[6] = molecular target: T2, Aminopeptidase A (APA, EC 3.4.11.7) on …; experiment: phage binding to SK-RC-49/APA cells against parental cells (not shown)
[7] = molecular target: GST-β3cyto (GST fusion protein of the β3 integrin cytoplasmic domain) (UniProt P05106); experiment: phage binding, colonies from β3-GST wells / GST wells
[8] = molecular target: GST-β3cyto (GST fusion protein of the β3 integrin cytoplasmic domain) (UniProt P05106); experiment: phage binding, colonies from β3-GST wells / BSA wells
[9] = molecular target: GST-β5cyto (GST fusion protein of the β5 integrin cytoplasmic domain) (UniProt P18084); experiment: phage binding, colonies from β5-GST wells / GST wells
[10] = molecular target: GST-β5cyto (GST fusion protein of the β5 integrin cytoplasmic domain) (UniProt P18084); experiment: phage binding, colonies from β5-GST wells / BSA wells
[11] = molecular target: GST-β3cyto (GST fusion protein of the β3 integrin cytoplasmic domain) (UniProt P05106); experiment: phosphorylated phage binding, β3 colonies / GST colonies
[12] = molecular target: GST-β3cyto (GST fusion protein of the β3 integrin cytoplasmic domain) (UniProt P05106); experiment: phage binding to β3, colonies with Fyn-phosphorylated phage / unphosphorylated phage
[13] = molecular target: GST-β3cyto (GST fusion protein of the β3 integrin cytoplasmic domain) (UniProt P05106); experiment: phosphorylated phage binding, β3 colonies / BSA colonies
[14] = molecular target: GST-β5cyto (GST fusion protein of the β5 integrin cytoplasmic domain) (UniProt P18084); experiment: phosphorylated phage binding, β5 colonies / BSA colonies
[15] = molecular target: GST-β5cyto (GST fusion protein of the β5 integrin cytoplasmic domain) (UniProt P18084); experiment: phosphorylated phage binding, β5 colonies / GST colonies
[16] = molecular target: GST-β5cyto (GST fusion protein of the β5 integrin cytoplasmic domain) (UniProt P18084); experiment: phage binding to β5, colonies with Fyn-phosphorylated phage / unphosphorylated phage

T2 sequence (Q07075 whole entry): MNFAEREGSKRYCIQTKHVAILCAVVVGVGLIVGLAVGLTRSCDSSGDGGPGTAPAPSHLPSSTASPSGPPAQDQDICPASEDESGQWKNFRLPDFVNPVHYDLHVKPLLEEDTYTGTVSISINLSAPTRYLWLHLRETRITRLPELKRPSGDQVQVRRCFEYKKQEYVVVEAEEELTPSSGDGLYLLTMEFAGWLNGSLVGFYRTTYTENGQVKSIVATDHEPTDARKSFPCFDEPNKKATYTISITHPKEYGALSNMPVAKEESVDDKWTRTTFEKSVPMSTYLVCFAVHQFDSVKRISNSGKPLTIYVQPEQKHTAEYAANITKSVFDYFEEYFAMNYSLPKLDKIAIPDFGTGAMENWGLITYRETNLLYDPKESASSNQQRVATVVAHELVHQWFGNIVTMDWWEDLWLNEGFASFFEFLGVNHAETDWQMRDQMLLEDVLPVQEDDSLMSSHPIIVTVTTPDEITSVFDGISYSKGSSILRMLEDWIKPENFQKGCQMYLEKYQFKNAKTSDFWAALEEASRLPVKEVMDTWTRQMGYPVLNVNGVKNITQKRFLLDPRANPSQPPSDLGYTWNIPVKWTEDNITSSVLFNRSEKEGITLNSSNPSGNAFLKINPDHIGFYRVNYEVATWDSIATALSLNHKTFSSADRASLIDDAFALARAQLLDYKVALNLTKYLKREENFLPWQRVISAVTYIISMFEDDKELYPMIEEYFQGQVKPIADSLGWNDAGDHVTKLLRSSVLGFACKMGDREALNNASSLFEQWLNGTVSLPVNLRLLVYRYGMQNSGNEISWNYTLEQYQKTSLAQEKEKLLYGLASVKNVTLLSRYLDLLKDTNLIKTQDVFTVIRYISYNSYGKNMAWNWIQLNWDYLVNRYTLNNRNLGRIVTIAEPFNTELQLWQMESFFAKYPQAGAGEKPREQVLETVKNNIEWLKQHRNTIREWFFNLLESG
GST-β3cyto (GST fusion protein of the β3 integrin cytoplasmic domain) (UniProt P05106), sequence (P05106 742-788): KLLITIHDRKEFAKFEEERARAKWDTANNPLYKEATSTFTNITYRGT
T1 sequence (P05106 742-788): as above

Binder: CARLEVLLPC (cysteine pairing not given here; also: displayed on phage, whole phage tested) [phage displaying CARLEVLLPC (SEQ ID NO:94)]
- β3/BSA Ratio [1]: 18.7 ratio
- β3/GST Ratio [2]: 2.8 ratio

B1: phage displaying CSMMCLEGCDDWC (SEQ ID NO:131) (peptide)
peptide: CSMMCLEGCDDWC
notes: one of the other phage selected in round 2
- binding result [3]: no binding

Binder: CLRQSYSYNC (cysteine pairing not given here; also: displayed on phage, whole phage tested) [phage displaying CLRQSYSYNC (SEQ ID NO:104)]
- β3/BSA Ratio [1]: 3.2 ratio
- β3/GST Ratio [2]: 2.4 ratio

Binder: CWDQNYLDDC (whole phage tested) [phage displaying CWDQNYLDDC (SEQ ID NO:109)]
- β5/GST Ratio [4]: 1.5 ratio
- β5/BSA Ratio [5]: 100 ratio

Binder: CPKVCPRECESNC (whole phage tested) [phage displaying CPKVCPRECESNC (SEQ ID NO:127)]
- fold enrichment relative to SK-RC-49 parental cells [6]: 6 fold

Binder: CNLSSEQC (cysteine pairing not given here; also: displayed on phage, whole phage tested) [phage displaying CNLSSEQC (SEQ ID NO:103)]
- β3/BSA Ratio [1]: 62 ratio
- β3/GST Ratio [2]: 2.7 ratio

Binder: CYIWPDSGLC (cysteine pairing not given here; also: displayed on phage, whole phage tested) [phage displaying CYIWPDSGLC (SEQ ID NO:105)]
- β5/GST Ratio [4]: 5.2 ratio
- β5/BSA Ratio [5]: 193 ratio

Binder: VVISYSMPD (whole phage tested) [phage displaying VVISYSMPD (SEQ ID NO:112)]
- β5/GST Ratio [4]: 3.8 ratio
- β5/BSA Ratio [5]: 28 ratio

Binder: CEPYWDGWFC (cysteine pairing not given here; also: displayed on phage, whole phage tested) [phage displaying CEPYWDGWFC (SEQ ID NO:106)]
- β5/GST Ratio [4]: 3.1 ratio
- β5/BSA Ratio [5]: 400 ratio

Binder: CGTGCAVECEVVC (whole phage tested) [phage displaying CGTGCAVECEVVC (SEQ ID NO:128)]
- binding result [3]: no binding

B2: phage displaying CAVACWADCQLGC (SEQ ID NO:129) (peptide)
peptide: CAVACWADCQLGC
notes: as for B1
- binding result [3]: no binding

Binder: CLGQCASICVNDC (whole phage tested) [phage displaying CLGQCASICVNDC (SEQ ID NO:126)]
- fold enrichment relative to SK-RC-49 parental cells [6]: 6 fold

Binder: CKEDGWLMTC (whole phage tested) [phage displaying CKEDGWLMTC (SEQ ID NO:107)]
- β5/GST Ratio [4]: 2.3 ratio
- β5/BSA Ratio [5]: 836 ratio

Binder: SDNRYIGSW (whole phage tested) [phage displaying SDNRYIGSW (SEQ ID NO:97)]
- β3/BSA Ratio [1]: 32 ratio
- β3/GST Ratio [2]: 3.3 ratio

Binder: YDWWYPWSW (whole phage tested) [phage displaying YDWWYPWSW (SEQ ID NO:95)]
- β3/BSA Ratio [1]: 163 ratio
- β3/GST Ratio [2]: 5.6 ratio

Binder: AGWLYMSWK [phage displaying … (SEQ ID NO:101)]
- β3/GST Ratio [7]: 1.8
- β3/BSA Ratio [8]: 2.4

Binder: DWFSYYEL [phage displaying DWFSYYEL (SEQ ID NO:114)]
- β5/GST Ratio [9]: 1.7
- β5/BSA Ratio [10]: 153

Binder: GGGSYRHVE (not fully specified (residue 5); also: displayed on phage) [Fyn-phosphorylated phage displaying … (SEQ ID NO:115)]
- β3 or β5/GST [11]: 1.5
- Phos/Unphos [12]: 13.2
- β3 or β5/BSA [13]: 5.3

Binder: DEEGYYMMR (whole phage tested) [phage displaying DEEGYYMMR (SEQ ID NO:110)]
- β5/GST Ratio [4]: 11.5 ratio
- β5/BSA Ratio [5]: 29 ratio

Binder: CKLWQEDGY [phage displaying … (SEQ ID NO:108)]
- β5/GST Ratio [9]: 1.8
- β5/BSA Ratio [10]: 665

Binder: YEWWYWSWA (whole phage tested) [phage displaying YEWWYWSWA (SEQ ID NO:98)]
- β3/BSA Ratio [1]: 28.1 ratio
- β3/GST Ratio [2]: 2.2 ratio

Binder: TLRKYFHSS (not fully specified (residue 5); also: displayed on phage) [Fyn-phosphorylated phage displaying … (SEQ ID NO:120)]
- β3 or β5/BSA [14]: 15.2
- β3 or β5/GST [15]: 3.8
- Phos/Unphos [16]: 3.8

Binder: GLDTYRGSP (whole phage tested) [phage displaying GLDTYRGSP (SEQ ID NO:96)]
- β3/BSA Ratio [1]: 48 ratio
- β3/GST Ratio [2]: 4.1 ratio

B3: phage displaying CSGLCTVQCLEGC (SEQ ID NO:130) (peptide)
peptide: CSGLCTVQCLEGC
notes: as for B1
- binding result [3]: no binding

Binder: KQFSYRYLL (whole phage tested) [phage displaying KQFSYRYLL (SEQ ID NO:111)]
- β5/GST Ratio [4]: 4.5 ratio
- β5/BSA Ratio [5]: 8 ratio

Binder: MLLGYRFEK (not fully specified (residue 5); also: displayed on phage) [Fyn-phosphorylated phage displaying … (SEQ ID NO:117)]
- β3 or β5/GST [11]: 3.5
- Phos/Unphos [12]: 2.5
- β3 or β5/BSA [13]: 2.7

Binder: SDWYYPWSW (whole phage tested; Selected on β3) [phage displaying SDWYYPWSW (SEQ ID NO:100)]
- β3/BSA Ratio [1]: 157 ratio
- β3/GST Ratio [2]: 2.1 ratio

Binder: KVSWYLDNG (whole phage tested) [phage displaying KVSWYLDNG (SEQ ID NO:99)]
- β3/BSA Ratio [1]: 20 ratio
- β3/GST Ratio [2]: 2.1 ratio

Binder: CFQNRC (cysteine pairing not given here; also: displayed on phage, whole phage tested) [phage displaying CFQNRC (SEQ ID NO:102)]
- β3/BSA Ratio [1]: 16 ratio
- β3/GST Ratio [2]: 3.1 ratio

Binder: TMLRYTVRL (not fully specified (residue 5); also: displayed on phage) [Fyn-phosphorylated phage displaying … (SEQ ID NO:118)]
- β3 or β5/BSA [14]: 2.2
- β3 or β5/GST [15]: 3.4
- Phos/Unphos [16]: 14.3

Binder: TMLRYFMFP (not fully specified (residue 5); also: displayed on phage) [Fyn-phosphorylated phage displaying … (SEQ ID NO:119)]
- β3 or β5/BSA [14]: 3.8
- β3 or β5/GST [15]: 2.3
- Phos/Unphos [16]: 4.2

Binder: SDWYYPWSW (whole phage tested; Selected on β5) [phage displaying SDWYYPWSW (SEQ ID NO:113)]
- β5/GST Ratio [4]: 2.4 ratio
- β5/BSA Ratio [5]: 304 ratio

Binder: CEQRQTQEGC (cysteine pairing not given here; also: displayed on phage, whole phage tested) [phage displaying CEQRQTQEGC (SEQ ID NO:93)]
- β3/BSA Ratio [1]: 14 ratio
- β3/GST Ratio [2]: 4.3 ratio

B4: phage displaying CYNLCIRECESICGADGACWTWCADGCSRSC (SEQ ID NO:125) (peptide)
peptide: CYNLCIRECESICGADGACWTWCADGCSRSC
notes: whole phage tested; also called tandem phage
- fold enrichment relative to SK-RC-49 parental cells [6]: 6 fold

— patent publication US20040170955A1 (University of Texas, published 2004)
